Reference: paper PMC2191679

Each binder was assayed against H-2Kb on the surface of RMA-S cells (mouse (endogenous in RMA-S)) (assay: stabilisation of Kb on RMA-S cells).
KVIRFDKL [OVA55-62/P3V->I] was tested, and the relative efficiency of peptide-binding to Kb (parent OVA55-62 = 1) was 1.
SVVRFDKL [OVA55-62/P1K->S] was tested, and the relative efficiency of peptide-binding to Kb (parent OVA55-62 = 1) was 2.
In the case of KIINFEKL [OVA257-264/P1S->K], the relative efficiency of peptide-binding to Kb (parent OVA257-264 = 1) is reported as 1.
Binder KVVNFDKL [OVA55-62/P4R->N] has a relative efficiency of peptide-binding to Kb (parent OVA55-62 = 1) of 2.
Binder SIVNFEKL [OVA257-264/P3I->V] has a relative efficiency of peptide-binding to Kb (parent OVA257-264 = 1) of 1.
KVVRFEKL [OVA55-62/P6D->E] showed a relative efficiency of peptide-binding to Kb (parent OVA55-62 = 1) of 10.
In the case of SIIRFEKL [OVA257-264/P4N->R], the relative efficiency of peptide-binding to Kb (parent OVA257-264 = 1) is reported as 1.
